The values that follow come from the RNAGym collection of RNA variant scans (doi:10.7554/elife.80360).

To fix the notation:
B1: HDV Ribozyme (parent)
chain: GGCCGGCAUGGUCCCAGCCUCCUCGCUGGCGCCGGCUGGGCAACAUUCCGAGGGGACCGUCCCCUCGGUAAUGGCGAAUGGGACCCA

Variants of B1 are the subject of this data set. Nature of the data set: self-cleavage, relative activity (ratio to wild type); higher = more cleavage; co-transcriptional.
In the case of U20G C26U, the self-cleavage was 0.256.
With C21U G52C the figure was 0.173.
The value for C21A G50C was 0.0639; that for C21A G50U was 0.0332.
With C21U A42G the figure was 0.0652; with C21U A42C, 0.203; with C21G G59C, 0.106.
In the case of U20C U37C, the self-cleavage was 0.252.
The value for C22A G38A was 0.0608; that for C22A G38U was 0.554; that for C21A G39U was 0.945.
As for U20C C63A, the self-cleavage was 0.0898.
Consider C21G C57G, for which the self-cleavage came to 0.0437.
As to U20G G80A, the self-cleavage came out at 0.0831.
In the case of U20G G80U, the self-cleavage worked out at 0.053.
The value for U20G C84G was 0.119; that for U20C U79C was 0.0845; that for U20A U23C was 0.
The value for C22A G50A was 0.235; that for U20G G74C was 0.0489.
The value for U20G A42C was 0.0875.
For the variant C21U G55A, the self-cleavage worked out at 0.231.
With C21U G55C the figure was 0.18; with C21A C75G, 0.0346.
With C22A A83C the figure was 0.147; with U20A G31A, 0.155.
With C22A G34U, the self-cleavage turned out to be 0.0536.
In the case of C21A C44U, the self-cleavage was found to be 0.0346.
Turning to C21G C64U, the self-cleavage came out at 0.0287.
The value for C21G C64A was 0.131.
With U20C C24G the figure was 0.115.
For the variant C22A A87C, the self-cleavage amounted to 0.491.
As for C21A G52A, the self-cleavage worked out at 0.132.
As for C21G C66U, the self-cleavage turned out to be 0.0475.
For the variant C21A A43U, the self-cleavage came to 0.0944.
Take C21U G29C: the self-cleavage is 0.0773.
With C21U G29A, the self-cleavage was determined as 0.0683.
Regarding C21G U69G, the self-cleavage worked out at 0.
For C21A C33A, the self-cleavage came to 0.026.
The value for C21A C33U was 0.0723.
On to C21A A77U, for which the self-cleavage was 0.
With C21A A77C the figure was 0.
The value for U20A G35A was 0.158; that for U20A G35C was 0.122.
The value for U20A G35U was 0.0437; that for C21A G38C was 0.185.
Turning to U20C G29U, the self-cleavage was 0.0519.
With U20G G81C the figure was 0.095; with C21U G80A, 0.185; with U20G G29C, 0.
With U20G G29U, the self-cleavage is 0.
The value for U20A U72C was 0.0723; that for C21U U23C was 0.175; that for C21U U23G was 0.13.
With C21G G73A the figure was 0.111.
With C21U U37C, the self-cleavage is 0.354.
With C21U U27G the figure was 0.0755.
Regarding U20G C36A, the self-cleavage came out at 0.
As for C21U C85U, the self-cleavage worked out at 0.511.
Regarding C21A A78C, the self-cleavage amounted to 0.
The value for C21A A78G was 0.189.
The value for C21A A78U was 0.0573; that for C21A C61G was 0.0997.
With C21A U72A the figure was 0; with U20G G82C, 0.246.
On to C21A G54C, for which the self-cleavage worked out at 0.0804.
For U20C C86A, the self-cleavage was 0.158.
As for U20C G39A, the self-cleavage came out at 0.
With U20G C61U the figure was 0.131; with C21A U23A, 0.0369; with C21U C62G, 0.244.
With U20G C58U, the self-cleavage came out at 0.237.
In the case of U20G C58G, the self-cleavage worked out at 0.266.
The value for U20G U72C was 0; that for U20G A51U was 0.332.
The value for C22A C32G was 0.0437.
Consider C22A C32A, for which the self-cleavage is 0.0678.
As for U20G U37C, the self-cleavage turned out to be 0.237.
With C21A G74C the figure was 0.126.
With C21A G74U the figure was 0.0712; with C21A U27C, 0.0519; with C21A U27A, 0.0504.
The value for C22A U23G was 0; that for C22A U23C was 0.0978.
With U20C G34U, the self-cleavage came out at 0.086.
As for C22A G29U, the self-cleavage came out at 0.128.
The value for C22A A51C was 0.341.
As to C21G G28U, the self-cleavage stood at 0.0287.
In the case of U20G U47A, the self-cleavage stood at 0.0831.
The value for U20G C62U was 0.19.
With U20G C62A the figure was 0.312; with U20C G67U, 0.175.
As to C22A C44U, the self-cleavage came out at 0.0282.
The value for C22A G40U was 0.0978; that for C22A G40A was 0.367; that for C21U U79A was 0.0573.
On to U20C G55C, for which the self-cleavage was 0.0791.
The value for C21U U46A was 0.511; that for C21U U46C was 0.386; that for C21U U46G was 0.0978.
In the case of C21U G28C, the self-cleavage was 0.0449.
The value for C21G A78U was 0.196; that for U20C C58A was 0.0875; that for C21G G74U was 0.0554.
As for C21G G74A, the self-cleavage was determined as 0.0511.
As to C22A C66G, the self-cleavage was 0.373.
For U20C C21G, the self-cleavage turned out to be 0.
For the variant U20G A56U, the self-cleavage is 0.178.
The value for C21U G67A was 0.158.
With C22A U65A the figure was 0.237; with U20A C66U, 0.0773.
For the variant U20C C64U, the self-cleavage was 0.244.
The value for C21U C49G was 0.102; that for C21U C49U was 0.245.
With C21U C64G the figure was 0.364; with U20G G52U, 0.332.
Regarding U20A U60A, the self-cleavage turned out to be 0.142.
The value for U20C C66U was 0.0831.
For the variant U20C C66A, the self-cleavage was 0.135.
Regarding C21G G29U, the self-cleavage was 0.0733.
On to U20C A70G, for which the self-cleavage was 0.107.
The value for U20C A70U was 0.0594.
In the case of U20A U46A, the self-cleavage was found to be 0.0594.
With C21A G34C, the self-cleavage amounted to 0.
Take U20G G25A: the self-cleavage was determined as 0.
The value for U20C C22A was 0.119; that for U20C C22G was 0.0554; that for C21G C63G was 0.0378.
The value for C21G C63A was 0.106.
C21G C63U: the self-cleavage was 0.0339.
Consider U20G U65G, for which the self-cleavage was found to be 0.437.
The value for U20A U47A was 0.104.
The value for U20A U47C was 0.0594; that for U20C G35U was 0.0978; that for C21G G55C was 0.135.
Turning to C21G G55A, the self-cleavage was found to be 0.0941.
The value for C21G A45G was 0.185; that for U20C C26G was 0.0923.
With C21G A70G the figure was 0.185.
The value for C21G A70C was 0.225.
Consider C21G G25A, for which the self-cleavage turned out to be 0.185.
For the variant C21A G55C, the self-cleavage worked out at 0.13.
For U20C A87G, the self-cleavage was found to be 0.282.
The value for C21A G28U was 0.196; that for U20C U69G was 0.0639; that for U20C U47G was 0.
As to C22A C75G, the self-cleavage worked out at 0.0604.
With C22A C75A the figure was 0.0308; with C21G U46C, 0.104.
As for U20G A71G, the self-cleavage came out at 0.196.
For U20G A71C, the self-cleavage was determined as 0.
For C21U G34C, the self-cleavage was 0.
In the case of C21U G53U, the self-cleavage came out at 0.234.
In the case of C21U C32U, the self-cleavage amounted to 0.205.
The value for C21A C85G was 0; that for C21A C85U was 0.157.
Consider C21A C85A, for which the self-cleavage is 0.
The value for C21A U37G was 0.208; that for U20G G68A was 0.0378.
In the case of U20C G54C, the self-cleavage was found to be 0.0475.
With U20G C86U the figure was 0.214.
C21U C86G: the self-cleavage was determined as 0.253.
Turning to C21U C86A, the self-cleavage was 0.505.
With U20C A45U the figure was 0.166.
In the case of C21U C36G, the self-cleavage came out at 0.
Consider C22A G68A, for which the self-cleavage is 0.298.
As for C22A U79G, the self-cleavage was determined as 0.0573.
